Measurements published in the supplement of paper PMC9170038.

System: MS2 coat protein
Test: apparent KD of MS2 coat protein; designed switch direction (-1 OFF switch, 1 ON switch): -1; higher = weaker reporter binding
Outline: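 Apparent KD, taken as the median over clusters for each design, was obtained by curve-fitting normalised cluster fluorescence. Designed RNA switches had been transcribed on Illumina chips by stalled E. coli RNA polymerase and titrated with SNAP-549-labelled MS2 coat protein, doubling from 0.7 or 1.5 nM to 3 µM.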

[1] = input ligand: microRNA oligo, concentration not stated
[2] = Eterna round: R95, input ligand: microRNA oligo, concentration not stated
[3] = Eterna round: R95, input ligand: FMN 200 uM
[4] = Eterna round: R95, input ligand: none

Sequence	apparent KD of MS2 coat protein (input ligand: FMN 200 uM) [nM]	apparent KD of MS2 coat protein [1] [nM]	apparent KD of MS2 coat protein (input ligand: none) [nM]	apparent KD of MS2 coat protein [2] [nM]	apparent KD of MS2 coat protein [3] [nM]	apparent KD of MS2 coat protein [4] [nM]
UUCCUCACUUCUUUGUCUCACAUGAGGAUCACCCAUGUAAUAUAGGAUAUGCUUAGUAUUUAUAUGCAGAAGGAUAUUAGUAUU [JR_ExcNG3_Sub084] (Eterna round: R96, puzzle: Exclusion NG 3)	157	39.8	55.5			
UUCCUGUCAGGAUAUGACUAGAUGCACGUUAGUGUGUUUACUUAGAAGGGACAUGAGGAUCACCCAUGUAUUCC [Bring Us a Shrubbery-15] (puzzle: Exclusion 4)				25.1		
UUCGUGCAGCUUUGCUGUACGCGUACAUGAGGAUCACCCAUGUAGGAUAUGGUAGGCUUUGCUUACUAGAAGGAUAUAGUGAUC [JL EXNG3 1.31] (Eterna round: R96, puzzle: Exclusion NG 3)		138				
UUCGUGCUGCUUUGCUGUACGAGUACAUGAGGAUCACCCAUGUAGGAUAUGGUACGCUUUGCGUGCUAGAAGGAUAUGUGUUGC [salish99_ExNG3_r04_506] (Eterna round: R96, puzzle: Exclusion NG 3)	24.6	16.9	24			
UUCUUACGAGGAUAUCGAUGGUGGAACAUGAGGAUCACCCAUGUAUGAGAUAUUGUAUUUCGAGAAGGCGUUCAGU [JR_E5_Sub058] (puzzle: Exclusion 5)				51.6		
UUCUUUACACGAGGAUAUCAUACAUGAGGAUCACCCAUGUUGCUUUGUCUGUUUUUAUGUAUUAUUGAGAAGGCGUUUUUCUUU [JR_ExcNG2_Sub076] (Eterna round: R96, puzzle: Exclusion NG 2)	21.9	19.7	23.7			
UUCUUUGUUGUGAGGAUAUCGUAUUCUUUUUGUUACGAGAAGGCACAUGAGGAUCACCCAUGUUUCUUGAUGUU [JR_BMOE4_Sub068] (puzzle: Brourd's mod of Exclusion 4)				16.7		
UUGAAGUAAGGAUAUACAUGAGGAUCACCCAUGUGGAGGAAGGUGAUGGGAGUAGGUAGUAGAAGGUACGAGGA [JR_Exclu3_Sub063] (puzzle: Exclusion 3)				100	124	220
UUGAGCAGACGGAGAUCCAACAUGAGGAUCACCCAUGUCUCAUAAGCUUUUUGUUCAUCUUAUUGUACCUUGGUGCU [Mat - Sensor v3 - turn-off var 1 - JL Mod - D23] (puzzle: Sensor v3, turn-off variant 1)				8.53	47	40.5
UUGGAGAUAGGAUAUACGAGGAGAGUUGAGGGAACGCGAUGACAUGAGGAUCACCCAUGUAGAAGGAUCAGGAG [JR_Exclu2_Sub070] (puzzle: Exclusion 2)				36	28.2	40.3
UUGGUGUCAGGAUAUGCUUAAUGUAUUUUAUUAUAAUAUAUACAUGAGGAUCACCCAUGUAGAAGGGACAUUGU [LRO-Excl2-08-Fireball XL5] (Eterna round: R97, puzzle: Exclusion 2)	125		154			
UUGGUUAUCUAUGGAAGUAACAUGAGGAUCACCCAUGUAUGUCUUGUUUUUUGUUCGUCAUAGGCCUUUUGUUUGGA [JR_SV3TOV1_Sub023] (puzzle: Sensor v3, turn-off variant 1)				24.9	24.9	30.3
UUGGUUGUGGUAGGAUAUCCGUUGGAAACCGUCGGAGAAGGACCACAGUCACUGGGUCUUUGUCUGGUGGAGUGGAAGAACCAU [pwkr exNG1 F6.20] (Eterna round: R96, puzzle: Exclusion NG 1)	283	157	218			
UUGUACAGAGGAUAUACAUGAGGAUCACCCAUGUGUUUCAGCUAGGAGACUAGCGAAAGUAGAAGGCUGUACUC [salish99_ex3_r4_015] (Eterna round: R97, puzzle: Exclusion 3)	23.9		11.1			
